Patent publication US20230416410A1 (ZOETIS SERVICES, published 2023)

Target: T1, CTLA4 Fc bIgG3aSAP (canine; bovine, UniProt Q9XSI1 36-161, limits assumed)
T1 construct: No linker
T1 sequence: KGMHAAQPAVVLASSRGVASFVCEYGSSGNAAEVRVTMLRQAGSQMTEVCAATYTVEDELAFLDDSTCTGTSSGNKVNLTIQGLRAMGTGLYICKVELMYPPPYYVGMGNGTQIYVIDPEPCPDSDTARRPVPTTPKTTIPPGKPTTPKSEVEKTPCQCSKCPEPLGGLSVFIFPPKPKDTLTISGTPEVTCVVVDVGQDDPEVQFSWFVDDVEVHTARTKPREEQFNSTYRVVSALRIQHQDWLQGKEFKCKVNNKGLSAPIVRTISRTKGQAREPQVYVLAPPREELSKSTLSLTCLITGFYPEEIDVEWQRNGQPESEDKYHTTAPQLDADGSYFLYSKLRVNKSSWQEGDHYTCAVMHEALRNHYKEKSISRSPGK
Assay: SPR Biacore, biotinylated receptor on SA sensor, pH 7.4, 15 C

B1: recombinant bovine FcgR2 (receptor)
chain: KPDLPKAVVTIQPAWINVLREDHVTLTCQGTSFSAGNLTTWFHNGSSIHTQKQPSYSFRAGSNDSGSYRCQREQTSLSDPVHLDVISDWLLLQTPSLVFQEGEPIMLRCHSWRNQPLNKITFYQDRKSKIFSYQRTNFSIPRANLSHSGQYHCTAFIGKMLHSSQPVNITVQESSSSGPSSMTHHHHHHAGLNDIFEAQKIEWHE
modifications: biotin on the BAP tag (BirA)
notes: also called bFcgR2; bFcgRII
- binding result: no binding
